Residue numbers refer to the chain shown, from its start. Names and notes keep the numbering of the source. Values belong to the binder of their own block, whether it stands above or below them.
Biological target: fluorescently labelled UDP-peptide bisubstrate conjugate
Assay: fluorescence polarisation; increasing concentrations of OGT titrated against a fixed concentration of the fluorescent probe; 0.1 M Tris/HCl pH 7.5, 0.15 M NaCl, 0.5 mM TCEP, 5% DMSO; 30 min in the dark

Kd: 1.6 µM
B1: O-GlcNAc transferase, truncated wild type (catalytic domain and 3.5 TPR repeats, residues 323-1044) (enzyme)
chain: CPTHADSLNNLANIKREQGNIEEAVRLYRKALEVFPEFAAAHSNLASVLQQQGKLQEALMHYKEAIRISPTFADAYSNMGNTLKEMQDVQGALQCYTRAIQINPAFADAHSNLASIHKDSGNIPEAIASYRTALKLKPDFPDAYCNLAHCLQIVCDWTDYDERMKKLVSIVADQLEKNRLPSVHPHHSMLYPLSHGFRKAIAERHGNLCLDKINVLHKPPYEHPKDLKLSDGRLRVGYVSSDFGNHPTSHLMQSIPGMHNPDKFEVFCYALSPDDGTNFRVKVMAEANHFIDLSQIPCNGKAADRIHQDGIHILVNMNGYTKGARNELFALRPAPIQAMWLGYPGTSGALFMDYIITDQETSPAEVAEQYSEKLAYMPHTFFIGDHANMFPHLKKKAVIDFKSNGHIYDNRIVLNGIDLKAFLDSLPDVKIVKMKCPDGGDNADSSNTALNMPVIPMNTIAEAVIEMINRGQIQITINGFSISNGLATTQINNKAATGEEVPRTIIVTTRSQYGLPEDAIVYCNFNQLYKIDPSTLQMWANILKRVPNSVLWLLRFPAVGEPNIQQYAQNMGLPQNRIIFSPVAPKEEHVRRGQLADVCLDTPLCNGHTTGMDVLWAGTPMVTMPGETLASRVAASQLTCLGCLELIAKNRQEYEDIAVKLGTDLEYLKKVRGKVWKQRISSPLFNTKQYTMELERLYLQMWEHYAAGNKPDHMIKPVEVTE

Kd: 11 µM
B2: O-GlcNAc transferase N648Y, truncated (catalytic domain and 3.5 TPR repeats, residues 323-1044) (enzyme)
chain: B1 chain with N326Y

Source: PMC7042088
